Data published in patent US20110287023A1 (AstraZeneca / MedImmune, published 2011).

Biological target: T1, native nuclear HMG1 from freeze-thawed 293H cells (human, UniProt P09429 1-215)
T1 construct: unpurified cell supernatant
T1 sequence (looked up): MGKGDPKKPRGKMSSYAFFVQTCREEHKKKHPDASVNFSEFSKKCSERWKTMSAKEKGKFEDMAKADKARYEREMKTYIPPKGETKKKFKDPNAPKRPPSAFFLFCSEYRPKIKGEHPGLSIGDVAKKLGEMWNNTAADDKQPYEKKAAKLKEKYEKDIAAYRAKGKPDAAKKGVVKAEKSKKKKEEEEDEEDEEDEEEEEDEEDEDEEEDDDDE
Assay: sandwich ELISA: antibody titrated and captured on anti-human IgG Fc, native nuclear HMG1 at 0.7 ug/ml, mouse anti-HMGB1 and anti-mouse IgG-HRP, OD 450
Experimental: Sandwich ELISA (soluble HMG1): Immunoplates (EIA/RIA plate, High binding, Costar) were coated with anti human IgG Fc at 10 μg/ml in PBS (pH 7.2) and incubated at 4° C. overnight. The coating reagent was removed and the plates were rinsed briefly with PBS. The plates were then blocked with 4% milk for 1 hour at 37° C. and rinsed with PBS. The anti-HMG1 antibodies were diluted in 4% milk. For serial dilutions, the antibodies were used at a starting concentration of 20 μg/ml. The diluted anti-HMG1 antibodies were then added into plate and incubated for 1 hr at 37° C. The plate was then washed 10 times with PBST (PBS/0.1% tween 20) and incubate with antigen (HMGB1, 2 μg/ml; or 0.7 μg/ml for native HMGB1) in 4% milk and incubated at 37° C. for 1 h. The plate was then wash 10 times and incubated with mouse anti-HMGB1, 1 μg/ml in 4% milk at 37° C. for 1 h. The plate was washed 10 times and incubated with anti-mouse IgG-HRP at 1:1000 at 37° C. for 1 h. The plate was then washed and developed. HRP activity was detected with Sureblue HRP substrate (KPL). Plates were read at 450 nm using a Kinetic Microplate Reader (Molecular Devices).

B1: human anti-HMG1 antibody G4 (antibody, IgG1, V domains shown)
VH: EVQLLESGGGLVQPGGSLRLSCAASGFTFSWYDMTWVRQAPGKGLEWVSSISPSGGYTKYADSVKGRFTISRDNSKNTLYLQMNSLRAEDTAVYYCTTEFYDYLDVWGKGTTVTVSS
VL: DIQMTQSPGTLSLSPGEGATLSCRASQSVSSTYLAWYQQKPGQAPRLLIYEASKRATGTPARFSGSGSGTDFTLSISSLEPEDFAVYYCQHRHNWPPQWTFGQGTKVEVK
notes: full length IgG1 made from a human Fab phage clone; also called ATCC PTA-6258
Q: Does B1 bind?
A: Result: binds
